Data reported in IntAct's records for PubMed 23001144.

Target: tir_eco27 tir (UniProt B7UM99)
Sequence (B7UM99 whole entry): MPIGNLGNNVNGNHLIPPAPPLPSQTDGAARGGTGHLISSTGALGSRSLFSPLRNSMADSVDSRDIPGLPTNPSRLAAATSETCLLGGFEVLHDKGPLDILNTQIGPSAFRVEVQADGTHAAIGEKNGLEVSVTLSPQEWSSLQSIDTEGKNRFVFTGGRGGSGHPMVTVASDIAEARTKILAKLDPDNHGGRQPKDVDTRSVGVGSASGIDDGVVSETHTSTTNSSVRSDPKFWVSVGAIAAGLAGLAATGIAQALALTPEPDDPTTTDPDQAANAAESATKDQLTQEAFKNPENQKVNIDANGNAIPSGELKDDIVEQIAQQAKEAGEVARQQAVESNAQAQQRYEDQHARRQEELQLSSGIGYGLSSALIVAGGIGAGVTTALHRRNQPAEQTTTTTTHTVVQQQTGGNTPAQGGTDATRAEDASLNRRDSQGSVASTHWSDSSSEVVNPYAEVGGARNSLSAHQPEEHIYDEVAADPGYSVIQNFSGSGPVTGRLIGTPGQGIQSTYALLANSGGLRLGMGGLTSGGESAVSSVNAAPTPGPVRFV

Sequence of Tyrosine-protein phosphatase non-receptor type 6 (Homo sapiens), P29350 C453S (P29350 whole entry C453S): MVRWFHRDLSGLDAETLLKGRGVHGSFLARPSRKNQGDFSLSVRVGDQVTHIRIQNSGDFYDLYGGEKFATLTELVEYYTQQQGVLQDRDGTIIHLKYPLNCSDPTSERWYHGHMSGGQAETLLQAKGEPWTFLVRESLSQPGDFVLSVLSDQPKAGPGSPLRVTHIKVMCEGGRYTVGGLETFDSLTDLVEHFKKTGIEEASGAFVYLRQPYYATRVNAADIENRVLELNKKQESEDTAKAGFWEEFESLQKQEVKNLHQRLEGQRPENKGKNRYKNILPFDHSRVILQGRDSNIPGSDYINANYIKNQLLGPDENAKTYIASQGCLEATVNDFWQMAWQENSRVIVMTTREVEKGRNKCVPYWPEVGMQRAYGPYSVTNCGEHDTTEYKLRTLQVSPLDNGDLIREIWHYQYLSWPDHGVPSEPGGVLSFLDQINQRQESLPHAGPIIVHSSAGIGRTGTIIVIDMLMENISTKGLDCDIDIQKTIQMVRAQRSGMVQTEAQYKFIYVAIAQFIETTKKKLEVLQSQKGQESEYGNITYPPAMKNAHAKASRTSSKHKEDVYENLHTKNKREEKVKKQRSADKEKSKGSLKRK

Substance: Tyrosine-protein phosphatase non-receptor type 6 (Homo sapiens), P29350 C453S
- effect of a mutation on the interaction: decreasing interaction
